{"source": "patent US20220000762A1", "about": "“COMPOSITIONS FOR TREATING OXIDATIVE STRESS-ASSOCIATED SKIN DISEASES AND SKIN AGEING AND DIAGNOSIS OF OXIDATIVE STRESS-ASSOCIATED SKIN DISEASES” (priority 2019, published 2022)", "molecules": {"B1": {"name": "RoxP: radical oxygenase of Propionibacterium acnes, secreted antioxidant protein of C. acnes; SEQ ID NO: 1 for strain KPA171202 (protein)", "chain": "MFVQIAASLAAASSIALGIPGAATPIDESQLPVGPQVSVTDSAQHTGPFAASSPLTITVKPGAPCVRADGYQESMVTRVLDDKGHQVWTGTFDESKLIGGTGLGTATFHVGSPAAAFNFHGSERTTYRTLSYCAYPHYVNGTRERLSQVSVKTFMVDPALN", "modifications": "Cutibacterium acnes"}}, "key": {"[1]": {"assay": "RoxP interaction with coproporphyrin III (absorbance curves)", "type": "binding", "conditions": "1 mg/ml RoxP (100 μl) with 50 μg Coproporphyrin", "method": "1 mg/ml RoxP (100 μl) was mixed with 50 μg Coproporphyrin (10 μl) and total volume was adjusted to 290 μl with PBS. Absorbance was measured at different wavelengths. The absorbance curves indicate binding of coproporphyrin III by RoxP (see FIG. 26)."}, "[2]": {"assay": "ABTS radical cation assay", "type": "biochemical", "method": "FIG. 4: RoxP antioxidant activity under adverse conditions. The ability of RoxP to reduce ABTS radical cations, denoted by a decrease in absorbance at 734 nm, was tested in multiple settings. Different concentrations of recombinant RoxP (rRoxP) (0.2-3.2 μM) in sodium phosphate buffer (20 mM, pH 7.4) (A), rRoxP (2.7 μM) incubated with salt solutions (B), pre-heated rRoxP (2.7 μM) incubated for 20 min in temperatures ranging from RT to 98° C. and allowed to cool down to ambient temperature prior to activity measurements (C), or rRoxP (2 μM) stored at room temperature for up to 2 weeks (D) were added to a solution of pre-formed ABTS radicals and the absorbance recorded after 30 sec.\nThe reduction of pre-formed ABTS radical cations in the presence of RoxP was analysed using a spectrophotometric assay previously described by Re et al. (1999 Free Radic Biol Med 26:1231-1237). 2,2′-azinobis(3-ethylbenzothiazoline-6-sulfonic acid) diammonium salt (ABTS) (Sigma-Aldrich) was initially dissolved in ddH2O to a concentration of […]. Potassium persulfate (Merck KGaA, Darmstadt, Germany) was subsequently added to a final concentration of 2.45 mM and the resulting solution kept dark and incubated overnight at RT. Formed ABTS radicals were diluted with PBS (pH 7.4) until reaching an absorbance of approximately 0.7 at 734 nm. Antioxidants (1.7 μM) were added (1:9 v/v) and the absorbance spectrum 500 to 900 nm recorded after 30 sec."}, "[3]": {"assay": "Deoxyribose (TBA-MDA) assay", "type": "biochemical", "conditions": "2 mg/ml RoxP, 37° C., 1 h", "method": "Deoxyribose assay is a well-established method to measure generation of hydroxyl radicals in biological systems and for evaluating the ability of antioxidants to reduce .OH radical generation. Such assays are described for example in Gutteridge & Halliwell (Biochem J. 1988, vol. 253(3), 932-933) and references therein. In particular, deoxyribose incubated with H2O2 and Fe2^+ (or Fe3^+ plus a reductant) is degraded into products that can react to form thiobarbituric acid-malondialdehyde (classic TBA-MDA assay) chromogen. This reaction is driven by —OH radicals. A reduction in prevalence of .OH radicals will result in fewer formed complexes and lower absorbance.\nA reaction mixture containing 5 mM 2-deoxyribose, 100 μM FeCl3, 100 μM EDTA, 1 mM H2O2, and 7.6 μg/ml ascorbic acid in buffer A (20 mM KH2PO4—KOH, pH 7.4), including or not 2 mg/ml RoxP, in triplicate, was incubated at 37° C. for 1 h (total volume 1 ml). After incubation, 1% w/v TBA (thiobarbituric acid) in 50 mM NaOH, and 2-8% v/v TCA (trichloroacetic acid) was added, followed by incubation at 95° C. for 15 minutes, and reading of absorbance at 532 nm."}, "[4]": {"assay": "Lyophilisation of RoxP", "type": "physicochemical", "conditions": "RoxP dissolved in water, absence of further excipients", "source_text": "Lyophilisation of proteins is also a well-established procedure in the art and typically employs an aqueous solution of the protein to be lyophilised, optionally admixed with one or more suitable lyophilisation excipients, such as trehalose, sucrose, raffinose, maltodextrin, mannitol, and/or dextran. […] The inventors have additionally observed that mannitol, and particularly 2-6% w/v, preferably 2-5% w/v, more preferably 2-4% w/v, or even more preferably 2-3% w/v mannitol (relative to the volume of the solution to be lyophilised) was especially advantageous for production of stable cake and preservation of RoxP activity."}, "[5]": {"tested_on": "HaCat cells", "assay": "MTT viability assay, paraquat oxidative stress, keratinocytes", "type": "cell-based, human", "method": "Human keratinocytes (HaCat cells; disclosed in Boukamp et al. 1988 J Cell Biol 106:761-71 and available from Deutsches Krebsforschungszentrum, DKFZ, info@cell-lines-service.de; and also commercially available for example from Addexbio, San Diego, Calif., catalogue number T0020001) were grown in SFM medium supplemented with L-glutamine, EGF (epidermal growth factor) and bovine pituitary extract (Gibson, Invitrogen) until 90% confluency in 96-well plates (Nunc A/S, Roskilde, Denmark). Human monocytes (THP-1 cells; disclosed in Tsuchiya et al. 1980 Int J Cancer 26:171-6; commercially available for example from Sigma-Aldrich, catalogue number 88081201; kindly provided by Dr Arne Egesten, Lund University) were cultured in RPMI 1640 medium supplemented with Glutamax-1 (Gibco®, ThermoFisher Scientific), 100 μg/ml streptomycin, 100 μg/ml penicillin, and 10% v/v foetal calf serum (ThermoFisher Scientific). All cells were grown at 37° C. in 5% CO2 and 95% humidity.\nHaCat cells cultured to 90% confluency, or THP-1 cells (1.2×10^6 cells/well) in a 96-well plate were treated with 2 mM paraquat (Sigma-Aldrich) and/or 5 μM RoxP for 24-48 h. […] Viability was measured by the addition of 0.5 mg/ml 3-(4,5-demethylthiazol-2-yl)-2,5-diphenyltetrazolium bromide (MTT) for 1-5 hours. […] The samples incubated for 30 minutes and absorbance at 550 nm was measured using a Wallac 1420 Multilabel Counter ([…]). […]"}}}
{"molecule": "B1", "values": [{"measurement": "binding of coproporphyrin III", "setting": "[1]", "value": "binding"}, {"measurement": "reduction of ABTS radical when FMN/FDN was added", "setting": "[2]; RoxP 2 mg/ml 10 μl, FMN/FDN 1 mM 1 μl or 3 μl, especially FDN", "value": "increased reduction"}, {"measurement": "activity after long-term storage at room temperature", "setting": "[2]; rRoxP 2 μM stored at room temperature for up to 2 weeks", "value": "able to endure"}, {"measurement": "antioxidant activity in presence of CaCl2", "setting": "[2]; rRoxP 2.7 μM incubated with salt solutions", "value": "loss of activity"}, {"measurement": "temperature endured without any significant loss of activity", "setting": "[2]; rRoxP 2.7 μM pre-heated 20 min, RT to 98° C., cooled before measurement", "value": "above 70 °C"}, {"measurement": "antioxidant activity in presence of NaCl", "setting": "[2]; rRoxP 2.7 μM, physiological concentrations of NaCl", "value": "withstood"}, {"measurement": "reducing activity on ABTS radical cations", "setting": "[2]; rRoxP 0.2-3.2 μM, sodium phosphate buffer 20 mM pH 7.4", "value": "concentration-dependent reducing activity"}, {"measurement": "absorbance at 532 nm (generation of .OH radicals)", "setting": "[3]", "value": "reduced"}, {"measurement": "preservation of RoxP activity after lyophilisation", "setting": "[4]", "value": "satisfactorily preserved the activity"}, {"measurement": "effect on negative oxidative effect of paraquat (cell viability)", "setting": "[5]; 2 mM paraquat, 5 μM RoxP (1:400 RoxP:oxidizer), 24 h, responded less well", "value": "completely inhibited"}, {"measurement": "overall viability in the absence of an added oxidizer", "setting": "[5]; no paraquat", "value": "increase the overall viability"}]}
